Data published in patent publication US20090246191A1.

How the values were obtained:
[1] = target: Aβ40 monomer (wild-type amyloid β peptide 1-40) (Artificial)
[2] = target: soluble cross-linked β-amyloid protein species (CAPS) prepared from Aβ40 (Artificial); test: EuLISA, plate-immobilised CAPS
[3] = target: LC (Jto) fibrils, formed from recombinant Vλ6 Jto; test: EuLISA, plate-immobilised LC fibrils
[4] = target: Aβ40 fibrils (Artificial); test: EuLISA, plate-immobilised Aβ40 fibrils
[5] = target: Aβ40 monomer (wild-type amyloid β peptide 1-40) (Artificial); test: EuLISA, plate-immobilised wild-type Aβ40 monomer
[6] = target: F19P Aβ40 monomer (Artificial); test: EuLISA, plate-immobilised F19P Aβ40 monomer (value in brackets)

Substance | formation of SDS stable cross-linked Aβ40 oligomers (SDS PAGE) [1] [%] | EC50 [2] [nM] | EC50 [3] [nM] | EC50 [4] [nM] | EC50 [5] [nM] | EC50 [6] [nM]
ImmunoPure Horseradish peroxidase (HRP) (from UniProt P00433) (enzyme) | 65 | – | – | – | – | –
unfractionated IGIV (Gammagard Liquid, human immune globulin intravenous) (polyclonal serum or antibody) | – | 631 | 1510 | 1080 | 861 | 3670
